Results from patent US20110201552A1 (Janssen / Centocor, published 2011).
One block for each binder: values may come before it.

What was measured:
[1] = target: recombinant enovin (6xHis-tagged mature human Enovin expressed from plasmid hEVNmat/pRSETB in E. coli BL21(DE3), refolded) (human); test: SPR (BIAcore 3000, 25 C), enovin immobilized, soluble GFRα3-Fc in flow; KD calculated as kd/ka
[2] = target: recombinant enovin (6xHis-tagged mature human Enovin expressed from plasmid hEVNmat/pRSETB in E. coli BL21(DE3), refolded) (human); test: SPR (BIAcore 3000, 25 C), enovin immobilized, soluble GFRα3-Fc in flow at three concentrations
[3] = target: T1, soluble GFRα-2 IgG1-Fc fusion protein (GFRα-2 amino acids 20 to 431 fused to human IgG1-Fc, from CHO cells) (human, UniProt O00451 20-431); test: SPR (BIAcore 3000), enovin immobilized, soluble GFRα-Fc in flow
T1 construct: range 20-431; The 17 amino acid CD33 signal peptide of the vector is left out; also called GFRα2-Fc; not shown: 243 amino acid COOH-terminal human IgG1-Fc fusion domain of vector Signal pIg plus (R&D Systems); Its exact limits and a
T1 sequence (looked up): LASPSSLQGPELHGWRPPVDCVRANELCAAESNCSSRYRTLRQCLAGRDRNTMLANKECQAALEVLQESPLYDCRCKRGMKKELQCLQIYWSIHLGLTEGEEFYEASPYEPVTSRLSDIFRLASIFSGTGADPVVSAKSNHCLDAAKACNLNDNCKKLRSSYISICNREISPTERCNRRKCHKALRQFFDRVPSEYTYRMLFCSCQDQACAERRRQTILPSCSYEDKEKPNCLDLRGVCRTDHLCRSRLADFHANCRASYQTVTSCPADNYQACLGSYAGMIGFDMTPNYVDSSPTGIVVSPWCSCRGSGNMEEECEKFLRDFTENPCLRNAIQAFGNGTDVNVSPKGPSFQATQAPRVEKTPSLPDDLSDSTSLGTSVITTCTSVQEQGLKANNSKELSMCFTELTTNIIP
Method: (§1) Surface plasmon resonance (SPR) experiments were performed at 25° C. using a BIAcore 3000 instrument. Analyses were performed with enovin and NGF as immobilized ligands. The carboxylated matrix of a Fl sensor chip was first activated with a 1:1 mixture of 400 mM N-ethyl-N-(dimethylaminopropyl)-carbodiimide and 100 mM N-hydroxy-succinimide for 10 min. Than, recombinant enovin and NGF were applied onto the activated surface in […] acetate buffer, pH 4.5 at a flow rate of 5 μl/min. Unoccupied reactive groups were inactivated with 1 M ethanolamine hydrochloride. For binding experiments, soluble GFRα1-3-Fc were superfused at concentrations of 10-100 nM in HEPES buffered saline (150 mM NaCl, 3.5 mM EDTA, 0.05% P-20, 10 mM HEPES, pH 7.4) at a flow rate of 10 μl/min. The association was monitored for 3 min and dissociation for 1 min, followed by regeneration with 5 mM NaOH. Dissociation was initiated by superfusion with HEPES buffered saline. A BIAcore evaluation software, 3.0 was used to calculate the association rate (kₐ), dissociation rate (kd) and the equilibrium dissociation constants (KD calculated as kd/Kₐ).

[4] = target: T2, soluble GFRα-1 IgG1-Fc fusion protein (GFRα-1 amino acids 27 to 427 fused to human IgG1-Fc, from CHO cells) (human, UniProt P56159 27-427); test: as above
T2 construct: range 27-427; The 17 amino acid CD33 signal peptide of the vector is left out; also called GFRα1-Fc; not shown: 243 amino acid COOH-terminal human IgG1-Fc fusion domain of vector Signal pIg plus (R&D Systems); Its exact limits and a
T2 sequence (looked up): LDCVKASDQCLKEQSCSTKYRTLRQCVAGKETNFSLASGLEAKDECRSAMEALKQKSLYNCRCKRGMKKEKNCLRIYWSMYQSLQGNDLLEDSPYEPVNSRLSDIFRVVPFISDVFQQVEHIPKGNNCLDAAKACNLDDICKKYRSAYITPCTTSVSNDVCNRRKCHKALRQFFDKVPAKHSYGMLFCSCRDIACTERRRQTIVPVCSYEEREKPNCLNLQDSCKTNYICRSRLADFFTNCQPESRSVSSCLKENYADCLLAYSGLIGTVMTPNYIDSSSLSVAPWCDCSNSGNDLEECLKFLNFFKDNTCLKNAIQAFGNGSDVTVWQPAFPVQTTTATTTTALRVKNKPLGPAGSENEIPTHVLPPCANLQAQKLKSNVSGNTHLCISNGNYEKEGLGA
Method: as §1

Kd [1]: 3.1 nM
koff [2]: 0.000508 s⁻¹
kon [2]: 165000 M⁻¹ s⁻¹
B1: soluble GFRα-3 IgG1-Fc fusion protein (GFRα-3 amino acids 28 to 371 fused to human IgG1-Fc, from CHO cells) (Fc fusion, UniProt O60609 28-371, looked up, not shown: a dimerising Fc or GST)
chain: LAAGDPLPTESRLMNSCLQARRKCQADPTCSAAYHHLDSCTSSISTPLPSEEPSVPADCLEAAQQLRNSSLIGCMCHRRMKNQVACLDIYWTVHRARSLGNYELDVSPYEDTVTSKPWKMNLSKLNMLKPDSDLCLKFAMLCTLNDKCDRLRKAYGEACSGPHCQRHVCLRQLLTFFEKAAEPHAQGLLLCPCAPNDRGCGERRRNTIAPNCALPPVAPNCLELRRLCFSDPLCRSRLVDFQTHCHPMDILGTCATEQSRCLRAYLGLIGTAMTPNFVSNVNTSVALSCTCRGSGNLQEECEMLEGFFSHNPCLTEAIAAKMRFHSQLFSQDWPHPTFAVMAHQ

binding result [3]: no binding (tested: 10-100 nM)
binding result [4]: no binding (tested: 10-100 nM)
B2: recombinant enovin (6xHis-tagged mature human Enovin expressed from plasmid hEVNmat/pRSETB in E. coli BL21(DE3), refolded) (ligand)
chain: MRGSHHHHHHGMASMTGGQQMGRDLYDDDDKDPAGGPGSRARAAGARGCRLRSQLVPVRALGLGHRSDELVRFRFCSGSCRRARSPHDLSLASLLGAGALRPPPGSRPVSQPCCRPTRYEAVSFMDVNSTWRTVDRLSATACGCLG
notes: The construct codes for a 146 amino acid protein: 33 leader and tag residues plus 113 residues of mature enovin; also called immobilized enovin
